Data published in article PMC2912912 (BMC Structural Biology, 2010).
Several values for one entry are separate records, joined by “and”; a condition that tells them apart may be missing. Equal entries are not always repeated.

Biological target: the molecule itself
Assay: SEC; analytical gel filtration, Tricorn Superdex 200 10/300, samples 5 mg/mL, 20 mM Tris-HCl pH 8.0, 200 mM NaCl, 1 mM DTT, 4°C; molecular weight against globular standards

Row | Protein | stoichiometry N
1 | full-length IpgC (invasion plasmid gene C) (natural protein) MSLNITENESISTAVIDAINSGATLKDINAIPDDMMDDIYSYAYDFYNKGRIEEAEVFFRFLCIYDFYNVDYIMGLAAIYQIKEQFQQAADLYAVAFALGKNDYTPVFHTGQCQLRLKAPLKAKECFELVIQHSNDEKLKIKAQSYLDAIQDIKE | 2
2 | IpgC^10-155 (invasion plasmid gene C, residues 10-155) (domain or fragment, source: E. coli BL21 (DE3), purified (Ni2+-NTA Sepharose, TEV digestion, Resource Q)) SISTAVIDAINSGATLKDINAIPDDMMDDIYSYAYDFYNKGRIEEAEVFFRFLCIYDFYNVDYIMGLAAIYQIKEQFQQAADLYAVAFALGKNDYTPVFHTGQCQLRLKAPLKAKECFELVIQHSNDEKLKIKAQSYLDAIQDIKE | 2
3 | IpgC^21-155 (invasion plasmid gene C, residues 21-155) (domain or fragment) SGATLKDINAIPDDMMDDIYSYAYDFYNKGRIEEAEVFFRFLCIYDFYNVDYIMGLAAIYQIKEQFQQAADLYAVAFALGKNDYTPVFHTGQCQLRLKAPLKAKECFELVIQHSNDEKLKIKAQSYLDAIQDIKE | 4 and 2
